Laboratory results published in US10513545B2, “Fusion polypeptide in which anti-inflammatory polypeptide and ferritin monomer fragment are bound and pharmaceutical composition for preventing and treating inflammatory diseases, containing same as active ingredient” (KYUNGPOOK NATIONAL UNIVERSITY INDUSTRY-ACADEMIC COOPERATION …, priority 2015, dated 2019).

T1: soluble EPCR (sEPCR) (Homo sapiens, UniProt Q9UNN8)
T1 construct: 96-well flat microtiter plates were coated with soluble EPCR
T1 sequence (Q9UNN8 18-210 limits assumed): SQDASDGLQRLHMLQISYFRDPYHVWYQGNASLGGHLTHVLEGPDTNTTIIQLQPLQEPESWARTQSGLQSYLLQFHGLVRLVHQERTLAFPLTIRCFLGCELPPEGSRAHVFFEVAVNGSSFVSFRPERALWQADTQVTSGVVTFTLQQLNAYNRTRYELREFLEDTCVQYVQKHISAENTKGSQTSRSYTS

T2: MMP-2 (Homo sapiens, UniProt P08253)
T2 sequence (P08253 110-660): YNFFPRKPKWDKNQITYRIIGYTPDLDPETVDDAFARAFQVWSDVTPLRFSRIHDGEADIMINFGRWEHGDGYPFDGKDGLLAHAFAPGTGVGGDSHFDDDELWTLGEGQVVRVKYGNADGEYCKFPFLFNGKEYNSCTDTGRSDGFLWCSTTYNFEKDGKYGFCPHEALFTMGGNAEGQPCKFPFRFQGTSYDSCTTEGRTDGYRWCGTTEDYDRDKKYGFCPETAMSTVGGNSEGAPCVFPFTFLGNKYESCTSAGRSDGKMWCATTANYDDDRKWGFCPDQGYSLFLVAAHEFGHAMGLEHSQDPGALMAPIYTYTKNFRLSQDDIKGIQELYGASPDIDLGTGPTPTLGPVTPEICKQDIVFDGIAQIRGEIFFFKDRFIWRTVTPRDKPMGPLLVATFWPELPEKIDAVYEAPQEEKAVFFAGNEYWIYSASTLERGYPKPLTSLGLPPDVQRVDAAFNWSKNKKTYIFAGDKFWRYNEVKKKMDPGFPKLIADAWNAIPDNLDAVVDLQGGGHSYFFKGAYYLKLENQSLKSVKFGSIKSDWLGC


Experiments:
endothelial cells = test: in vivo binding to endothelial cells (intravenously injected mice, isolated mouse endothelial cells); details: mouse animal model, FIG. 12B
Text: The endothelial cells were isolated according to the manufacturer's (Dynal Biotec, Lake Success, N.Y.) instructions, using Dynabeads coupled to anti-CD31 antibody and the Dynal Magnetic holder. Briefly, for endothelial cell isolation, four to six mice (6-10 weeks old) were anesthetized, followed by exposure of the peritoneal cavity. Excised lungs and hearts were put into RPMI media, followed by removing other tissues from the heart and lungs, and then rinsing once in PBS. The lungs and heart were incubated with 1.0 mg/mL of collagenase A in a 50 mL tube for 1 h at around 37° C. Every 5 min during this incubation, the tube was gently agitated for a few seconds, and then the suspension was transferred into a new 50 mL tube by passing it through the 70 um tissue sieve (BD Falcon). The filtered cell suspension was centrifuged for 10 min at 1000 rpm. After removal of the supernatant, the cell pellet was washed once with cold PBS in a new 15-mL tube. […]
A direct cell-binding assay was performed on HUVECs and in vivo using fluorescence labeled-PC-Gla, TFG, and TFMG. […] The fluorescence value of the HUVECs or endothelial cells were measured with tightly bound PC-Gla, TFG, and TFMG, respectively. The concentrations of PC-Gla, TFG, and TFMG were measured by using the nanoparticle ratio of fluorescent dye per protein.

soluble EPCR (sEPCR) = target: T1, soluble EPCR (sEPCR); test: solid-phase ELISA for binding affinity to soluble EPCR; details: FIG. 9, read-out: Kd(app) for the interaction with sEPCR
Protocol: 9. Enzyme-Linked Immunosorbent Assays (ELISA) for Evaluating EPCR (Endothelial Protein C Receptor) Binding Affinity
To evaluate the interaction of the wild-type PC, PC-Gla peptides, TFG, and TFMG with EPCR, 96-well flat microtiter plates were coated with soluble EPCR in 20 mM carbonate-bicarbonate buffer (pH 9.6) containing 0.02% sodium azide, overnight at 4° C. After the plates were washed three times in TBS buffer (0.1 M NaCl, 0.02 M Tris-HCl, pH 7.4) containing 0.05% Tween 20, the plates were incubated with wild-type PC, PC-Gla peptides, TFG, and TFMG (7-1000 nM) diluted in the buffer for 1 h. After the plates were rinsed again, they were incubated with a goat anti-protein C polyclonal antibody (1:1000) for 1 h. Then, the plates were washed and incubated with rabbit anti-goat IgG (KPL, MD, 1:1000) for 1 h. After washing, the plates were incubated with 2,2′-azino-di(3-ethylbenzthiazoline-6-sulfonate) (ABTS; KPL, Gaithersburg, Md.). Colorimetric analysis was performed by measuring absorbance values at 405 nm.

MMP-2 = target: T2, MMP-2; test: cleavage of nanocaged TFMG by activated MMP-2; format: biochemical; details: p-aminophenylmercuric acetate-activated MMP-2, FIG. 6-8
Protocol: To evaluate whether TFMG could be selectively cleaved by MMP2, TFMG was incubated with APMA-mediated activated MMP-2 in PBS at 37° C. for 3 h. The cleaved fragments of TFMG were detected by MALDI-ToF.

Row | Molecule | in vivo binding to endothelial cells compared with PC-Gla (endothelial cells) | Kd (soluble EPCR (sEPCR)) | release of PC-Gla by linker cleavage with MMP-2 (MMP-2)
1 | TFMG: as TFG with an MMP-2 cleavable linker (GPLGLAG) between ferritin fragment C-terminus and PC-Gla (apparently SEQ ID NO: 15) (protein, Fusion polypeptide (2)) MGGTTFLLRNASGHMSSQIRQNYSTDVEAAVNSLVNLYLQASYTYLSLGFYFDRDDVALEGVSHFFRELAEEKREGYERLLKMQNQRGGRIFLQDIKKPAEDEWGKTPDAMKAAMALEKKLNQALLDLHALGSARTDPHLCDFLETHFLDEEVKLIKKMGDHLTNLHRLGGGSEFVDGGGSGTSGPLGLAGANSFLEELRHSSLERECIEEICDFEEAKEIFQNVDDTLAFWSKHVLEHHHHHH | bound more strongly to, and stayed longer on, endothelial cells than PC-Gla did | 307 nM | continuously released PC-Gla
2 | TFG: fusion polypeptide: TRAP at N-terminus and PC-Gla at C-terminus of short ferritin monomer fragment, forms nanocage (apparently SEQ ID NO: 14) (protein, Fusion polypeptide (1)) MGGTTFLLRNASGHMSSQIRQNYSTDVEAAVNSLVNLYLQASYTYLSLGFYFDRDDVALEGVSHFFRELAEEKREGYERLLKMQNQRGGRIFLQDIKKPAEDEWGKTPDAMKAAMALEKKLNQALLDLHALGSARTDPHLCDFLETHFLDEEVKLIKKMGDHLTNLHRLGGGSEFVDGGGSGTSANSFLEELRHSSLERECIEEICDFEEAKEIFQNVDDTLAFWSKHVLEHHHHHH | bound more strongly to, and stayed longer on, endothelial cells than PC-Gla did | – | –
